Data taken from the supplement of paper PMC10126150.
± gives the standard deviation of the averaged measurements.

test system: ATP; assay: switch fluorescence ratio, 500 uM ATP over buffer (Cy3 cluster intensity, sum of 5 cycles each) (fold (ratio)); higher = stronger signal-on switching upon ATP binding; sequences stand for … in TCGTCGGCAGCGTCAGATGTGTATAAGAGACAGTTTTTTTTTTTTTTTTTTTTTTTTT…TC; conditions: aptamer strand: ATP DNA aptamer (quencher-CACCTGGGGGAGTATTGCGGAGGAAGG + anchor), 100 nM annealed; ATP concentration: 500 uM
In short: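 Per cluster, summed Cy3 intensity from the target cycles was divided by that from the buffer cycles to give the fluorescence ratio, then averaged per switch-domain sequence. Clusters outside 100-1000 RFU were excluded. The Cy3-labelled switching-strand clusters, on a modified Illumina MiSeq flow-cell, were annealed to 100 nM quencher-labelled ATP aptamer and imaged in selection buffer, then after 15 min with 500 uM ATP at 22 °C, for five cycles with NaOH stripping and re-annealing between them.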
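Note: ATP exposure 15 min at 22 °C before imaging.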

Sequence | switch fluorescence ratio
TGGAAGTGAG | 0.969 ± 0.055
TTTTATGAG | 0.999 ± 0.031
AAGTACGACT | 1.1 ± 0.016
AACGGGCGGG | 1.15 ± 0.014
TTCAAGATGG | 0.992 ± 0.046
AGATGGTACT | 0.9668 ± 4.6e-05
AGAATGTTTT | 0.989 ± 0.033
CATGGCACTT | 1.009 ± 0.0041
CTAGCGGTCG | 0.997 ± 0.0051
TTCGGAACAG | 0.967 ± 0.013
CGACTAAAAG | 0.999 ± 0.042
CCATGGTTAT | 1.026 ± 0.0034
CGGGACTGCT | 0.9825 ± 0.0052
CGAAGGGGGG | 1.03 ± 0.087
TTTAGGGTAA | 1 ± 0.03
TTTCTGTTGG | 0.992 ± 0.035
TTGACAAGAT | 1.28 ± 0.39
ATAATGTCGC | 0.9702 ± 0.0012
GTTGTTTAAT | 1.006 ± 0.0081
TGGTGGTGTG | 0.983 ± 0.035
CATGGGACGT | 0.988 ± 0.071
GAAAATTGGG | 0.983 ± 0.015
GGGACTGGGG | 1.02 ± 0.061

Sequence | switch fluorescence ratio
GCTGATGGGC | 1.05 ± 0.044
TGTTTTGACG | 1.07 ± 0.085
CAGGAGTGTA | 1.03 ± 0.036
TGTGGAGCTT | 1.07 ± 0.041
AGGCTTATAT | 1.01 ± 0.024
GCTGTTTTGG | 0.965 ± 0.027
TTTTAAGAGT | 0.992 ± 0.028
CAACCGCGTA | 2.36 ± 0.1
GGCTAAGGGG | 0.992 ± 0.023
TGGGAAAGGT | 0.994 ± 0.025
CAAAGACACA | 0.985 ± 0.012
TTGCACGTAT | 1.08 ± 0.056
AAGTAGGGGA | 1.02 ± 0.021
ATTTGGGCCA | 1.02 ± 0.022
GGGGCACTGC | 1.008 ± 0.0024
GGGGACTTTG | 1.09 ± 0.073
GATAGACTTA | 0.949 ± 0.03
ATCTTGGTTG | 1 ± 0.026
GGAACCGGGT | 1.029 ± 0.0086
TACAAAAAAT | 1.03 ± 0.047
GATGGCATCG | 1.02 ± 0.014
CGGTCTATGC | 1.12 ± 0.035
TTGTGCCCGG | 0.9727 ± 0.009

Sequence | switch fluorescence ratio
CTGTATAACG | 0.998 ± 0.031
TGGTGAGATC | 0.965 ± 0.0039
GTTTATATCC | 1.02 ± 0.013
GAGTAAAAAG | 0.99 ± 0.014
ATGTTTCTGG | 0.965 ± 0.011
AGGGGATAGT | 0.9659 ± 0.0091
TTCCCGAAGT | 1.02 ± 0.04
ATTTGGTGAG | 0.983 ± 0.03
AATCCGTCAT | 1.14 ± 0.017
CTGGTTACGC | 1.003 ± 0.0057
CACTCTGTGT | 1.02 ± 0.026
TGGTAAAATT | 1.031 ± 0.01
CACTTTTTTA | 0.962 ± 0.039
ATGTGAAAGG | 1.02 ± 0.018
TTATTAAGGT | 1.01 ± 0.031
GCTGGGGAAG | 1.02 ± 0.019
GCGGGGTCGT | 0.977 ± 0.032
CGGTTTGTTT | 0.987 ± 0.04
TACTGTGGGG | 1.009 ± 0.0094
TCAAGGGTTA | 1.02 ± 0.011
CGATGCGAAG | 1.02 ± 0.035
CTTAGGGAGA | 1 ± 0.035
CAGCTGGGGG | 1 ± 0.024

Sequence | switch fluorescence ratio
AAGGTGGTTT | 0.957 ± 0.048
GCTAGGTCTA | 1.01 ± 0.034
TCGGGTCTGC | 1.01 ± 0.015
TAGGGGTAGC | 0.985 ± 0.04
CGTAGGAAGA | 1.02 ± 0.048
ATATGCATAG | 1.05 ± 0.051
AGAGAAGAGA | 0.998 ± 0.023
TAGTCAGCC | 1.01 ± 0.029
ACCGGAGTCA | 1.22 ± 0.058
TAGTACTGCT | 1.02 ± 0.015
GAGTGGGGAG | 0.968 ± 0.045
CGAAAACGTG | 0.976 ± 0.012
TCAGATGTCT | 1.03 ± 0.055
TTAGTTTGTT | 0.981 ± 0.014
ATGGTGAGGG | 0.962 ± 0.011
AAGCTCTTGA | 1 ± 0.04
TTGCGTGTGG | 1.048 ± 0.0046
TCCGTTTTTT | 1.04 ± 0.063
TCCACCGTTC | 1.66 ± 0.77
GGATGTATAG | 0.997 ± 0.052
TTTTAAGAAA | 3.11 ± 3
GTTGGTGCAC | 0.98 ± 0.04
ATCTATTGGG | 0.991 ± 0.0066

Sequence | switch fluorescence ratio
TGGGGCGTCT | 1.01 ± 0.043
GGGGGTCCAG | 0.997 ± 0.022
GACTGTAAAG | 0.967 ± 0.089
ATCACAGCTA | 1.04 ± 0.017
CAGACCAGCT | 1.02 ± 0.036
TTTGGTGTCC | 0.984 ± 0.017
CCGCGGGTTT | 1.08 ± 0.075
TTGTCCGTGC | 1.14 ± 0.15
GCAAGGAGGA | 0.996 ± 0.014
CGGCGTAGTC | 1.02 ± 0.035
ATGTGTGGGC | 1.01 ± 0.021
TTATACATTG | 1.02 ± 0.041
CTAAGGGAGG | 0.992 ± 0.017
GTTTTTCGGT | 0.981 ± 0.026
GGCGAAGTGC | 1.03 ± 0.013
TGAAAGGAAT | 1.13 ± 0.19
ACGGTGGTGT | 1.03 ± 0.016
AACGCTGAGG | 1.01 ± 0.009
AAGGGGGAGT | 0.996 ± 0.028
AAGTTGGCGC | 1.01 ± 0.037
TACTTAGTTT | 1.01 ± 0.077
CTATAATCTA | 0.976 ± 0.041
ATGTGGTGCA | 1.02 ± 0.0034

Sequence | switch fluorescence ratio
ATAAAGCGAT | 1.06 ± 0.023
TGTCCGAGCA | 1.75 ± 0.058
TGACGCGTCA | 1.01 ± 0.013
CGTTATCTAG | 1.01 ± 0.03
TAGGGTTGGT | 1.01 ± 0.046
TTCGGTGGCG | 0.978 ± 0.077
CCGGTGACGA | 1.053 ± 0.0041
GTGGGGATTC | 0.971 ± 0.037
AGTAAGGTTG | 0.961 ± 0.054
TTTTTGGATT | 1 ± 0.032
GGAAAAGTTG | 0.9848 ± 0.0083
ATGTAAGGCG | 1.014 ± 0.0076
TGGATTAGGT | 1.01 ± 0.021
TTATAAATTG | 0.991 ± 0.03
GATTTGGGTT | 1.02 ± 0.041
AAAAAATTGC | 1.04 ± 0.058
CCGTTTCTGG | 1 ± 0.063
ATGGAAGAGG | 0.982 ± 0.018
GATGTGCTTG | 1.01 ± 0.013
GTTGTTATGG | 0.988 ± 0.017
TCACTTGGGT | 0.996 ± 0.036
TAGAGAATTT | 0.984 ± 0.02
CGGTAAGGCG | 0.947 ± 0.11

Sequence | switch fluorescence ratio
TGGGTTCGAA | 0.98 ± 0.013
CTTCGGAGGT | 1.028 ± 0.0037
TGCTTTTTGG | 1.01 ± 0.032
TTTTTTGGTT | 0.997 ± 0.026
AGTCTGTAGT | 0.981 ± 0.036
TTATAAG | 1.003 ± 0.0067
GACATGGCGG | 1.01 ± 0.024
AGTCGTGCGG | 0.988 ± 0.037
ACTTTGGTCT | 1.04 ± 0.051
GCTTATACGA | 1.55 ± 0.012
CGAGGGGAAC | 2.81 ± 2.5
ACGGTTGTTT | 1.0154 ± 0.00077
CGATACCGTG | 1.007 ± 0.0044
AGGCTCCTCT | 1.02 ± 0.025
GCTTGGTCGT | 1.03 ± 0.024
TTCTATTCTT | 1.02 ± 0.026
GATTTTTTAC | 0.995 ± 0.037
TGGGTTAAGA | 1.01 ± 0.034
GAAACCGGAT | 0.966 ± 0.041
